Reference: patent publication US20230340151A1 (Pfizer, published 2023)

How the values were obtained:
Assay in all cases: flow cytometry on cells displaying the construct
[1] = biological target: CID1873 (human GUCY2c patch mutant) (human/chicken)
[2] = biological target: T1, CID1879 (human-chicken GUCY2c chimera) (human/chicken)
T1 chain: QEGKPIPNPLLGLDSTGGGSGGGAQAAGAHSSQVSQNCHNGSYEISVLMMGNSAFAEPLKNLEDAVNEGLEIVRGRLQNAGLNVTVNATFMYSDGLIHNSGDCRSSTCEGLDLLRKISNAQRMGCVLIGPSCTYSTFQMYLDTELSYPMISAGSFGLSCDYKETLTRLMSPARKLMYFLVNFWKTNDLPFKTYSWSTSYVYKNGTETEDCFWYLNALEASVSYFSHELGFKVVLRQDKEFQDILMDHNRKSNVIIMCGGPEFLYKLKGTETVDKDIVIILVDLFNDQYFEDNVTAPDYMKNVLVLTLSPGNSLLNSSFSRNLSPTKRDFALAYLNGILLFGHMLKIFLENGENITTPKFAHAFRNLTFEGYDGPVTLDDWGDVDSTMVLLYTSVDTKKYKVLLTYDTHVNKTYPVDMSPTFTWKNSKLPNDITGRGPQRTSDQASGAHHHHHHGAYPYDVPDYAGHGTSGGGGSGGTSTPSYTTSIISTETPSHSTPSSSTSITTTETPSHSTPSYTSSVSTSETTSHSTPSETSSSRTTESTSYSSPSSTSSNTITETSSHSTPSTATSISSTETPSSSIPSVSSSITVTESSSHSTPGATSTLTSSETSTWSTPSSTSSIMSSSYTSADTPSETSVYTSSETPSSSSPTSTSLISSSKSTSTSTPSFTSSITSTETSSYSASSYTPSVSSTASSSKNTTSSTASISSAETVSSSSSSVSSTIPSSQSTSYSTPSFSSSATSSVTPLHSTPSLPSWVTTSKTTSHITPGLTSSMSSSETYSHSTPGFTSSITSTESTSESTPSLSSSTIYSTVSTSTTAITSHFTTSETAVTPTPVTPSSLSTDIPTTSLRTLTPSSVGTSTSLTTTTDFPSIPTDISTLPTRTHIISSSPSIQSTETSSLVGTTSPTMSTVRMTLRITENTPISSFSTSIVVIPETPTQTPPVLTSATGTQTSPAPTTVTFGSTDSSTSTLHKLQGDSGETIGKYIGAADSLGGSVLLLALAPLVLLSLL

[3] = biological target: T2, CID1940 (reverse chimera, chicken GUCY2c with human residues) (chicken/human)
T2 chain: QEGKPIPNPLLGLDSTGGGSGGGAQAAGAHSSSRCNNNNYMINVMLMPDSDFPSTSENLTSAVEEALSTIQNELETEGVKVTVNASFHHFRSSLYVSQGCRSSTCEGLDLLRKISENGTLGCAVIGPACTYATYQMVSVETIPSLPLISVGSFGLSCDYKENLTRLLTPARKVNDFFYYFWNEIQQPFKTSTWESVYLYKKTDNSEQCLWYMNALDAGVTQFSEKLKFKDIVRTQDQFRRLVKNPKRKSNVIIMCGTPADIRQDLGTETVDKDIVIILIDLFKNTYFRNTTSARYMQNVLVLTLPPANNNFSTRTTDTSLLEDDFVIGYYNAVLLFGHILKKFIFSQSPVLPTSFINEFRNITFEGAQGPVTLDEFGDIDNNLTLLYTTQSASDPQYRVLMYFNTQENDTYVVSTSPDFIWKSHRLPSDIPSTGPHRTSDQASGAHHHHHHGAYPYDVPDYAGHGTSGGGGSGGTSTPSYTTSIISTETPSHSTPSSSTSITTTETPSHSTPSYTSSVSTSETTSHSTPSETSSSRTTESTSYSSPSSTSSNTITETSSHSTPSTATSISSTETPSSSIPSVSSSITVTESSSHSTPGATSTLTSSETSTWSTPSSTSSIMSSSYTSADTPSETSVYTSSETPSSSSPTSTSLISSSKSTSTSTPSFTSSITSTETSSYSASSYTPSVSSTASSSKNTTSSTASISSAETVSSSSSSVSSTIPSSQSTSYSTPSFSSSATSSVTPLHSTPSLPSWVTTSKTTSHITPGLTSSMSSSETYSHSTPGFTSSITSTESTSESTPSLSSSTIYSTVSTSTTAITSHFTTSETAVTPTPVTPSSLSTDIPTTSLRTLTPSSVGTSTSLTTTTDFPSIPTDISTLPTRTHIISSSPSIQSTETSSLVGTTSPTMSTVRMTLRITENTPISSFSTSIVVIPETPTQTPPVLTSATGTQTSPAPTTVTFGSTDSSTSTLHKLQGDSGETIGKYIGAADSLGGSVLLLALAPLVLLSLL

[4] = biological target: CID1944 (human GUCY2c point mutant) (human)
[5] = biological target: CID1947 (human GUCY2c point mutant) (human)
[6] = biological target: CID1948 (human GUCY2c point mutant) (human)
[7] = biological target: CID1949 (human GUCY2c point mutant) (human)

Measured: binding result

B1: GUCY2C-1608 (bispecific antibody)
chain 1: DIQLTQSPSSLSASVGDRVTITCRASESVDYYGSSLLQWYQQKPGKAPKLLIYAASKLASGVPSRFSGSGSGTDFTLTISSLQPEDFATYYCQQTRKAYTFGQGTKLEIKGGGSGGGGEVQLVESGGGLVQPGGSLRLSCAASGFTFSDYYMTWVRQAPGKGLEWVAFIRNQARGYTSDHNPSVKGRFTISRDNAKNSLYLQMNSLRAEDTAVYYCARDRPSYYVLDYWGQGTTVTVSSGCPPCPAPEAAGAPSVFLFPPKPKDTLMISRTPEVTCVVVDVSHEDPEVKFNWYVDGVEVHNAKTKPREEQYNSTYRVVSVLTVLHQDWLNGKEYKCKVSNKALPAPIEKTISKAKGQPREPQVCTLPPSREEMTKNQVSLWCLVKGFYPSDIAVEWESNGQPENNYKTTPPVLDSDGSFFLYSKLTVDKSRWQQGNVFSCSVMHEALHNHYTQKSLSLSPG
chain 2: DIQMTQSPSSLSASVGDRVTITCTSSQSLFNVRSQKNYLAWYQQKPGKAPKLLIYWASTRESGVPSRFSGSGSGTDFTLTISSLQPEDFATYYCKQSYDLFTFGGGTKVEIKGGGGSGGGGEVQLVESGGGLVQPGGSLRLSCAASGFTFSSYWMHWVRQAPGKGLEWIGEIKPSNELTNVHEKFKDRFTISVDKAKNSAYLQMNSLRAEDTAVYYCTRTITTTEGYWFFDVWGQGTLVTVSSGCPPCPAPEAAGAPSVFLFPPKPKDTLMISRTPEVTCVVVDVSHEDPEVKFNWYVDGVEVHNAKTKPREEQYNSTYRVVSVLTVLHQDWLNGKEYKCKVSNKALPAPIEKTISKAKGQPREPQVYTLPPCREEMTKNQVSLSCAVKGFYPSDIAVEWESNGQPENNYKTTPPVLDSDGSFFLVSKLTVDKSRWQQGNVFSCSVMHEALHNHYTQKSLSLSPG
notes: also called GUCY2c CD3 bispecific
binds: all assays above
